This is an account of results in PMC5777261 (The Journal of Biological Chemistry, 2017).

For orientation: IC50 means the concentration at which inhibition is half-maximal.

Common to all, as to test: radioligand binding; HEK293 cells expressing ACKR3-YFP or mutants, pretreated 5 min at 37 °C with 100 μM phenylarsine oxide; 50 pM 125I-CXCL12 tracer in 50 mM HEPES pH 7.4, 5 mM MgCl2, 1 mM CaCl2, 0.2% BSA, with or without unlabeled CXCL12 or CXCL11, 30 min at 37 °C; bound label counted in a γ counter; IC50 taken as proxy for ligand affinity
Common to all, as to conditions: one partner purified

Test [1] has as its target T1, ACKR3 N127S-YFP (UniProt P25106 1-362, N127S).
T1 construct: ACKR3 (CXCR7) with N127S (Ballesteros-Weinstein 3.35), made by PCR in ACKR3-YFP; also called N127^3.35S; source: HEK293, transiently transfected (polyethyleneimine), on or in cells; not shown: YFP, C-terminal, kept

The target of test [2] is T2, ACKR3-YFP (wildtype ACKR3 fused C-terminally to YFP) (UniProt P25106 1-362).
T2 construct: atypical chemokine receptor 3 (ACKR3, also known as CXCR7); also called CXCR7; receptor-YFP fusion; source: HEK293, transiently transfected (polyethyleneimine), on or in cells; not shown: YFP, C-terminal, kept

The target in test [3] is T3, ACKR3 Y315A-YFP (UniProt P25106 1-362, Y315A).
T3 construct: ACKR3 (CXCR7) with Y315A (Ballesteros-Weinstein 7.53), made by PCR in ACKR3-YFP; also called Y315^7.53A; source: HEK293, transiently transfected (polyethyleneimine), on or in cells; not shown: YFP, C-terminal, kept

Test [4] deals with T4, ACKR3 N127K-YFP (UniProt P25106 1-362, N127K).
T4 construct: ACKR3 (CXCR7) with N127K (Ballesteros-Weinstein 3.35), made by PCR in ACKR3-YFP; also called N127^3.35K; source: HEK293, transiently transfected (polyethyleneimine), on or in cells; not shown: YFP, C-terminal, kept

The target in test [5] is T5, ACKR3 R142A-YFP (UniProt P25106 1-362, R142A).
T5 construct: ACKR3 (CXCR7) with R142A (Ballesteros-Weinstein 3.50), made by PCR in ACKR3-YFP; also called R142^3.50A; ACKR3 R142^3.50A; source: HEK293, transiently transfected (polyethyleneimine), on or in cells; not shown: YFP, C-terminal, kept

Test [6] concerns the target T6, ACKR3 N127D-YFP (UniProt P25106 1-362, N127D).
T6 construct: ACKR3 (CXCR7) with N127D (Ballesteros-Weinstein 3.35), made by PCR in ACKR3-YFP; also called N127^3.35D; source: HEK293, transiently transfected (polyethyleneimine), on or in cells; not shown: YFP, C-terminal, kept

The target in test [7] is T7, ACKR3 D141N-YFP (UniProt P25106 1-362, D141N).
T7 construct: ACKR3 (CXCR7) with D141N (Ballesteros-Weinstein 3.49), made by PCR in ACKR3-YFP; also called D141^3.49N; source: HEK293, transiently transfected (polyethyleneimine), on or in cells; not shown: YFP, C-terminal, kept

Test [8] concerns the target T8, ACKR3 Y143A-YFP (UniProt P25106 1-362, Y143A).
T8 construct: ACKR3 (CXCR7) with Y143A (Ballesteros-Weinstein 3.51), made by PCR in ACKR3-YFP; also called Y143^3.51A; source: HEK293, transiently transfected (polyethyleneimine), on or in cells; not shown: YFP, C-terminal, kept

The target of test [9] is T9, ACKR3 D90N-YFP (UniProt P25106 1-362, D90N).
T9 construct: ACKR3 (CXCR7) with D90N (Ballesteros-Weinstein 2.50), made by PCR in ACKR3-YFP; also called D90^2.50N; source: HEK293, transiently transfected (polyethyleneimine), on or in cells; not shown: YFP, C-terminal, kept
T9 sequence (P25106 whole entry D90N): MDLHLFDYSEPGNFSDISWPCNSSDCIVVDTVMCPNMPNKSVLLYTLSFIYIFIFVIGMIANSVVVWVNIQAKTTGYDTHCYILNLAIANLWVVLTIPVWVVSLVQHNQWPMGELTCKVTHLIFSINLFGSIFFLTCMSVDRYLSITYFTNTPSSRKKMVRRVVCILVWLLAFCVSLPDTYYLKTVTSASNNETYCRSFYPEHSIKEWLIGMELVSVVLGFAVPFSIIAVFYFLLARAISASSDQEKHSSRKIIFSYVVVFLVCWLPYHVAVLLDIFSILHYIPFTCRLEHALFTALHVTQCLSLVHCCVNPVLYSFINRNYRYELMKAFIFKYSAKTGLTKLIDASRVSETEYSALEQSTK

T8 sequence (P25106 whole entry Y143A): as the sequence (P25106 whole entry D90N) above, with N90D, Y143A counted along it
T3 sequence (P25106 whole entry Y315A): as the sequence (P25106 whole entry D90N) above, with N90D, Y315A counted along it
T2 sequence (P25106 whole entry, the tested form may be a part): as the sequence (P25106 whole entry D90N) above, with N90D counted along it
T6 sequence (P25106 whole entry N127D): as the sequence (P25106 whole entry D90N) above, with N90D, N127D counted along it
T1 sequence (P25106 whole entry N127S): as the sequence (P25106 whole entry D90N) above, with N90D, N127S counted along it
T4 sequence (P25106 whole entry N127K): as the sequence (P25106 whole entry D90N) above, with N90D, N127K counted along it
T7 sequence (P25106 whole entry D141N): as the sequence (P25106 whole entry D90N) above, with N90D, D141N counted along it
T5 sequence (P25106 whole entry R142A): as the sequence (P25106 whole entry D90N) above, with N90D, R142A counted along it

B1: CXCL11 (unlabeled recombinant chemokine) (ligand, human, UniProt O14625 22-94, looked up)
chain: FPMFKRGRCLCIGPGVKAVKVADIEKASIMYPSNNCDKIEVIITLKENKGQRCLNPKSKQARLIIKKVERKNF
notes: chemokine CXCL11 (I-TAC); called human CXCL11 in the text on scavenging by MEFs; also called I-TAC; unlabeled CXCL11; source: recombinant; gift from Amanda Nevins and Brian Volkman or from PeproTech Inc
Take B1: the IC50 in test [1] amounted to 3.7 nM; in test [2] it was 39.1 nM; in test [3] it was 19.1 nM; in test [4], 11 nM; in [5], 44.8 nM; in [6] it was 6.6 nM. Further, the IC50 was determined as 4.8 nM in test [7], 15.4 nM in test [8] and 35.9 nM in [9]. Moreover, the “Log IC50” value in [1] was -8.5; in test [2], -7.4; in [3], -7.7; in test [4], -7.9; in test [5] it was -7.4; in test [6], -8. Further, the “Log IC50” value in test [7] is -8.3; in [8], -7.8; in test [9], -7.5.
